A word on the Kd: it is the constant that tells how readily two partners part at equilibrium. A low value points to higher affinity.

The experiment has as its target CAP256 pIgG. Nature of the experiment: SPR. On the technique in general: SPR reads the build-up and loss of mass on a sensor chip optically.

B1: FcγRIIa R131 (receptor)
chain: QAAAPPKAVLKLEPPWINVLQEDSVTLTCQGARSPESDSIQWFHNGNLIPTHTQPSYRFKANNNDSGEYTCQTGQTSLSDPVHLTVLSEWLVLQTPHLEFQEGETIMLRCHSWKDKPLVKVTFFQNGKSQKFSRLDPTFSIPQANHSHSGDYHCTGNIGYTLFSSKPVTITVQVPSMGSSSPMG
For the molecule B1, binding was put at a Kd of 4.6 µM. In other words, the single-digit micromolar range.

B2: FcγRIIa H131 (receptor)
chain: QAAAPPKAVLKLEPPWINVLQEDSVTLTCQGARSPESDSIQWFHNGNLIPTHTQPSYRFKANNNDSGEYTCQTGQTSLSDPVHLTVLSEWLVLQTPHLEFQEGETIMLRCHSWKDKPLVKVTFFQNGKSQKFSHLDPTFSIPQANHSHSGDYHCTGNIGYTLFSSKPVTITVQVPSMGSSSPMGIIVAVVIATAVAAIVAAVVALIYCRKKRISANSTDPVKAAQFEPPGRQMIAIRKRQLEETNNDYETADGGYMTLNPRAPTDDDKNIYLTLPPNDHVNSNN
Take B2: the affinity, expressed as Kd, was 5.8 µM.

B3: FcγRIIb (receptor)
chain: TPAAPPKAVLKLEPQWINVLQEDSVTLTCRGTHSPESDSIQWFHNGNLIPTHTQPSYRFKANNNDSGEYTCQTGQTSLSDPVHLTVLSEWLVLQTPHLEFQEGETIVLRCHSWKDKPLVKVTFFQNGKSKKFSRSDPNFSIPQANHSHSGDYHCTGNIGYTLYSSKPVTITVQAPSSSPMGIIVAVVTGIAVAAIVAAVVALIYCRKKRISALPGYPECREMGETLPEKPANPTNPDEADKVGAENTITYSLLMHPDALEEPDDQNRI
The molecule B3 displayed a dissociation constant (Kd) of 5.3 µM.
